The experiment has as its target UBE2D2 (1–147), from the plasmid pHis//2 Hs UBE2D2 (1–147) (human, UniProt P62837 1-147). Nature of the experiment: BLI. In general terms: In BLI a coated tip is dipped into the sample, and binding shifts an interference pattern.

A word on the Kd: it is a measure of binding affinity in units of concentration. Low readings indicate tighter binding, high ones weaker binding.

Chain of UBE2D2 (1–147), from the plasmid pHis//2 Hs UBE2D2 (1–147) (P62837 whole entry): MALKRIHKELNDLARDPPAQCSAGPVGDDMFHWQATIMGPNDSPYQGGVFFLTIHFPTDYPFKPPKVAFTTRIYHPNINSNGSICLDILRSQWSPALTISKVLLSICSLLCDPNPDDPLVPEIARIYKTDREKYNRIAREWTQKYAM

B1: CHIP wild type, recombinant, C-terminal His tag (pET30-CHIP-His) (enzyme)
chain: MKGKEEKEGGARLGAGGGSPEKSPSAQELKEQGNRLFVGRKYPEAAACYGRAITRNPLVAVYYTNRALCYLKMQQHEQALADCRRALELDGQSVKAHFFLGQCQLEMESYDEAIANLQRAYSLAKEQRLNFGDDIPSALRIAKKKRWNSIEERRIHQESELHSYLSRLIAAERERELEECQRNHEGDEDDSHVRAQQACIEAKHDKYMADMDELFSQVDEKRKKRDIPDYLCGKISFELMREPCITPSGITYDRKDIEEHLQRVGHFDPVTRSPLTQEQLIPNLAMKEVIDAFISENGWVEDY
In turn, B1 showed a Kd of 14.3 µM. That is a double-digit micromolar value.

B2: CHIP P228S, recombinant, C-terminal His tag (enzyme)
chain: MKGKEEKEGGARLGAGGGSPEKSPSAQELKEQGNRLFVGRKYPEAAACYGRAITRNPLVAVYYTNRALCYLKMQQHEQALADCRRALELDGQSVKAHFFLGQCQLEMESYDEAIANLQRAYSLAKEQRLNFGDDIPSALRIAKKKRWNSIEERRIHQESELHSYLSRLIAAERERELEECQRNHEGDEDDSHVRAQQACIEAKHDKYMADMDELFSQVDEKRKKRDISDYLCGKISFELMREPCITPSGITYDRKDIEEHLQRVGHFDPVTRSPLTQEQLIPNLAMKEVIDAFISENGWVEDY
Consider B2, for which the Kd was 44.9 µM. Compared with the last molecule, the Kd is about 3.1-fold higher.

B3: CHIP G33S, recombinant, C-terminal His tag (enzyme)
chain: MKGKEEKEGGARLGAGGGSPEKSPSAQELKEQSNRLFVGRKYPEAAACYGRAITRNPLVAVYYTNRALCYLKMQQHEQALADCRRALELDGQSVKAHFFLGQCQLEMESYDEAIANLQRAYSLAKEQRLNFGDDIPSALRIAKKKRWNSIEERRIHQESELHSYLSRLIAAERERELEECQRNHEGDEDDSHVRAQQACIEAKHDKYMADMDELFSQVDEKRKKRDIPDYLCGKISFELMREPCITPSGITYDRKDIEEHLQRVGHFDPVTRSPLTQEQLIPNLAMKEVIDAFISENGWVEDY
Turning to B3, the equilibrium dissociation constant (Kd) stood at 24.2 µM.
